Measured values reported in US9994628B2, “Peptides and combination of peptides for use in immunotherapy against various tumors” (IMMATICS BIOTECHNOLOGIES GMBH, priority 2015, dated 2018).

Biological target: HLA-A*02:01 (Homo sapiens, UniProt P04439, D140Y/D185E/D98H/E176V/E277Q/G131W/G231S/I119V/I121R/I166T/I218V/L300P/L318F/N151K/N90K/P208A/P217A/Q86G/Q94H/R138H/R169H/T345S)
Assay: MHC binding assay: UV-ligand exchange and β2m ELISA (peptide exchange yield, Table 7)
Conditions: binding of HLA-class I restricted peptides to HLA-A*02:01, UV-ligand exchange
Excerpt: Candidate peptides for T cell based therapies according to the present invention were further tested for their MHC binding capacity (affinity). The individual peptide-MHC complexes were produced by UV-ligand exchange, where a UV-sensitive peptide is cleaved upon UV-irradiation, and exchanged with the peptide of interest as analyzed. Only peptide candidates that can effectively bind and stabilize the peptide-receptive MHC molecules prevent dissociation of the MHC complexes. To determine the yield of the exchange reaction, an ELISA was performed based on the detection of the light chain (β2 m) of stabilized MHC complexes. The assay was performed as generally described in Rodenko et al. (Rodenko et al., 2006).
96 well MAXISorp plates (NUNC) were coated over night with 2 ug/ml streptavidin in PBS at room temperature, washed 4× and blocked for 1 h at 37° C. in 2% BSA containing blocking buffer. Refolded HLA-A*02:01/MLA-001 monomers served as standards, covering the range of 15-500 ng/ml. Peptide-MHC monomers of the UV-exchange reaction were diluted 100 fold in blocking buffer. Samples were incubated for 1 h at 37° C., washed four times, incubated with 2 ug/ml HRP conjugated anti-β2 m for 1 h at 37° C., washed again and detected with TMB solution that is stopped with […]. Absorption was measured at 450 nm. Candidate peptides that show a high exchange yield (preferably higher than 50%, most preferred higher than 75%) are generally preferred for a generation and production of antibodies or fragments thereof, and/or T cell receptors or fragments thereof, as they show sufficient avidity to the MHC molecules and prevent dissociation of the MHC complexes.

Substance	Peptide exchange (MHC class I binding score, peptide exchange yield)
1 (KLQEKIQEL; listed as Homo sapiens) [compound 1]	++++ (≥75% = ++++)
3 (RVIDDSLVVGV; listed as Homo sapiens) [compound 3]	+++ (≥50% = +++)
4 (VLFGELPAL; listed as Homo sapiens) [compound 4]	+++ (≥50% = +++)
5 (GLVDIMVHL; listed as Homo sapiens) [compound 5]	+++ (≥50% = +++)
6 (FLNAIETAL; listed as Homo sapiens) [compound 6]	++++ (≥75% = ++++)
7 (ALLQALMEL; listed as Homo sapiens) [compound 7]	+++ (≥50% = +++)
9 (SLITGQDLLSV; listed as Homo sapiens) [compound 9]	+++ (≥50% = +++)
10 (QLIEKNWLL; listed as Homo sapiens) [compound 10]	+++ (≥50% = +++)
11 (LLDPKTIFL; listed as Homo sapiens) [compound 11]	+++ (≥50% = +++)
12 (RLLDPKTIFL; listed as Homo sapiens) [compound 12]	+++ (≥50% = +++)
13 (RLHDENILL; listed as Homo sapiens) [compound 13]	+++ (≥50% = +++)
14 (YTFSGDVQL; listed as Homo sapiens) [compound 14]	+++ (≥50% = +++)
16 (SLADLSLLL; listed as Homo sapiens) [compound 16]	+++ (≥50% = +++)
17 (GLLPSAESIKL; listed as Homo sapiens) [compound 17]	++++ (≥75% = ++++)
18 (KTASINQNV; listed as Homo sapiens) [compound 18]	++ (≥20% = ++)
19 (KVFELDLVTL; listed as Homo sapiens) [compound 19]	++ (≥20% = ++)
20 (ALVEKGEFAL; listed as Homo sapiens) [compound 20]	++ (≥20% = ++)
21 (YLMDDFSSL; listed as Homo sapiens) [compound 21]	+++ (≥50% = +++)
22 (LMYPYIYHV; listed as Homo sapiens) [compound 22]	+++ (≥50% = +++)
23 (ALLSPLSLA; listed as Homo sapiens) [compound 23]	+++ (≥50% = +++)
24 (KVWSDVTPL; listed as Homo sapiens) [compound 24]	+++ (≥50% = +++)
25 (LLWGHPRVALA; listed as Homo sapiens) [compound 25]	+++ (≥50% = +++)
26 (VLDGKVAVV; listed as Homo sapiens) [compound 26]	+++ (≥50% = +++)
27 (GLLGKVTSV; listed as Homo sapiens) [compound 27]	+++ (≥50% = +++)
28 (IKVTDPQLLEL; listed as Homo sapiens) [compound 28]	++ (≥20% = ++)
29 (KMISAIPTL; listed as Homo sapiens) [compound 29]	++ (≥20% = ++)
30 (IITEVITRL; listed as Homo sapiens) [compound 30]	+++ (≥50% = +++)
31 (GLLETTGLLAT; listed as Homo sapiens) [compound 31]	+++ (≥50% = +++)
33 (TLDRNSLYV; listed as Homo sapiens) [compound 33]	++ (≥20% = ++)
